Source: publication doi:10.1101/2024.04.15.589559

Target: pre-formed CPX-SNARE complex (Complexin 1 with Syntaxin1A, SNAP25B and VAMP2) (human | rat | mouse) (UniProt O14810)
Sequence (O14810 whole entry, chain 1 of 4): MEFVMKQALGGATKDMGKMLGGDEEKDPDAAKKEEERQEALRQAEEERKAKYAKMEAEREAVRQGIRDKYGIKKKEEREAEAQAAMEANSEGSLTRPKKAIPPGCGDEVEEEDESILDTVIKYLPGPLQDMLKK
Sequence (P32851 whole entry, chain 2 of 4, further chain): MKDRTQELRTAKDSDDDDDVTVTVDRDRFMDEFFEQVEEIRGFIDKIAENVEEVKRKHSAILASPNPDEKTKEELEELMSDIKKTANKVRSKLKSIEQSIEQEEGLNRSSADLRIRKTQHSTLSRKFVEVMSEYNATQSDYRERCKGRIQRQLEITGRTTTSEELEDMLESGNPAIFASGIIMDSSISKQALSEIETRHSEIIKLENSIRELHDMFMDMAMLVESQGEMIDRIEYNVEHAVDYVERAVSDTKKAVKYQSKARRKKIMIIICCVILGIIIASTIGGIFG
Sequence (P60879 whole entry, chain 3 of 4, further chain): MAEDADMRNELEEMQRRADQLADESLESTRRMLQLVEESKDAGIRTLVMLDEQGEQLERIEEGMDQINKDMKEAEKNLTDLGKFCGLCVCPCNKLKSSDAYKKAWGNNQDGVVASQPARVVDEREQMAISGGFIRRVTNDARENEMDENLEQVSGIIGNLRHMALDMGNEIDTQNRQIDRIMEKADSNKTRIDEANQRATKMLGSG
Sequence (P63027 whole entry, chain 4 of 4, further chain): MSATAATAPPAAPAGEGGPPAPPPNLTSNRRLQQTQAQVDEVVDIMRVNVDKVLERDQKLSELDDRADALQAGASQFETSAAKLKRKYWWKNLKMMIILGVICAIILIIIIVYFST

Syt7^DA (SUMO-Syt1^TMD-Syt7 with D225A, D227A, D233A, D357A, D359A) (from UniProt Q62747 17-403)
reduction in Ca2+ (100 μM)-evoked fusion of Syt1^WT/VAMP2 vesicles with Syt7^DA in the t-SNARE bilayer, 1:800 to 1:200 protein-to-lipid (~30% to ~70%): 70%
